# Assays:
# FGFR3 = FGFR3 (UniProt P22607); test: phosphorylation enrichment, bacterial display (enrichment ratio); higher = better substrate or ligand; peptides without Tyr show the background
# Fes = Fes (UniProt P07332); test: as above
# c-Src = test: as above
# FGFR1 = FGFR1 (UniProt P11362); test: as above
# EPHB1 = EPHB1 (UniProt P54762); test: as above
# Jak2 = Jak2 (UniProt O60674); test: as above
# Fyn = Fyn (UniProt P06241); test: as above
# MERTK = MERTK (UniProt Q12866); test: as above
# Chain of MERTK (Q12866 whole entry, looked up): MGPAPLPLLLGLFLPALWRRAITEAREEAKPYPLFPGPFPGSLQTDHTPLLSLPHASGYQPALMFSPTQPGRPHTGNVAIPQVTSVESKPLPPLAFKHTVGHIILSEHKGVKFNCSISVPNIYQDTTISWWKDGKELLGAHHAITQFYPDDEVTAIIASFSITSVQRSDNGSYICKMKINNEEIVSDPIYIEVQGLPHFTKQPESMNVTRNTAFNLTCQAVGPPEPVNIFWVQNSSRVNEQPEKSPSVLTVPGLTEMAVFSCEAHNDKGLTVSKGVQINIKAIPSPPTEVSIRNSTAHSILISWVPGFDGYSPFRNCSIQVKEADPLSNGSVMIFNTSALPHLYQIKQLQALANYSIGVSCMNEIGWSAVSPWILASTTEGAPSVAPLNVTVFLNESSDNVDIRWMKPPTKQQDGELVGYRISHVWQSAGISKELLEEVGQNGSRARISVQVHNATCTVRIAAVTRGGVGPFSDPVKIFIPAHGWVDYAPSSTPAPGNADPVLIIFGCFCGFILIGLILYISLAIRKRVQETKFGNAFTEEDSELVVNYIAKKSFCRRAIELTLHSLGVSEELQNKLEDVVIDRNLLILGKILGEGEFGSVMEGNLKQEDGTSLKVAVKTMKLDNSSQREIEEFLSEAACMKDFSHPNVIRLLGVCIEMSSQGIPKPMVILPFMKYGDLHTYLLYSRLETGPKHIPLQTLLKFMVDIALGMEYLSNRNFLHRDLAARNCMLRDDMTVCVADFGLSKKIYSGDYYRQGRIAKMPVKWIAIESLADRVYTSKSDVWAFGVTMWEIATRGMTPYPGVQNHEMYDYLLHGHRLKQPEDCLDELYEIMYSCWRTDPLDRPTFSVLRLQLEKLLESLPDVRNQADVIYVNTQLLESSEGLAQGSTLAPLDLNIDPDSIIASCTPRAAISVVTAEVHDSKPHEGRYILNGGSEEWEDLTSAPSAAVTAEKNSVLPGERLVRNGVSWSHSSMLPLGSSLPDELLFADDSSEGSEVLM
# Hck = Hck (UniProt P08631); test: as above
# Chain of Hck (P08631 whole entry, looked up): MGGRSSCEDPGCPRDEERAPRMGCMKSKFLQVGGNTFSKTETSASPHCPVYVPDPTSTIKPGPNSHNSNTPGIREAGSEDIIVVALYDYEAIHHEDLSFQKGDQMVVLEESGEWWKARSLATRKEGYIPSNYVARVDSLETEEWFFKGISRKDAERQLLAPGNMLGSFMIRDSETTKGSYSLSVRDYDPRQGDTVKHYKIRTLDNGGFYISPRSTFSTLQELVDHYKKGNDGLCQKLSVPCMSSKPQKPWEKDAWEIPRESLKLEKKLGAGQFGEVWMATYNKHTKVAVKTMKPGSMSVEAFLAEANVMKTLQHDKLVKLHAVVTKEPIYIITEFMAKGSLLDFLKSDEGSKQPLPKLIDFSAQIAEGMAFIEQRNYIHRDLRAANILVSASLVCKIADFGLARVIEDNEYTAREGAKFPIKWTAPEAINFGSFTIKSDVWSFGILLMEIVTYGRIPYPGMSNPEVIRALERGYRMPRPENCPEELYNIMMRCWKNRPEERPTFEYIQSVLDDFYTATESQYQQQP
# c-Abl (mouse) = test: as above
# AncSZ = test: as above
# EPHB2 = EPHB2 (UniProt P29323); test: as above
# Chain of EPHB2 (P29323 whole entry, looked up): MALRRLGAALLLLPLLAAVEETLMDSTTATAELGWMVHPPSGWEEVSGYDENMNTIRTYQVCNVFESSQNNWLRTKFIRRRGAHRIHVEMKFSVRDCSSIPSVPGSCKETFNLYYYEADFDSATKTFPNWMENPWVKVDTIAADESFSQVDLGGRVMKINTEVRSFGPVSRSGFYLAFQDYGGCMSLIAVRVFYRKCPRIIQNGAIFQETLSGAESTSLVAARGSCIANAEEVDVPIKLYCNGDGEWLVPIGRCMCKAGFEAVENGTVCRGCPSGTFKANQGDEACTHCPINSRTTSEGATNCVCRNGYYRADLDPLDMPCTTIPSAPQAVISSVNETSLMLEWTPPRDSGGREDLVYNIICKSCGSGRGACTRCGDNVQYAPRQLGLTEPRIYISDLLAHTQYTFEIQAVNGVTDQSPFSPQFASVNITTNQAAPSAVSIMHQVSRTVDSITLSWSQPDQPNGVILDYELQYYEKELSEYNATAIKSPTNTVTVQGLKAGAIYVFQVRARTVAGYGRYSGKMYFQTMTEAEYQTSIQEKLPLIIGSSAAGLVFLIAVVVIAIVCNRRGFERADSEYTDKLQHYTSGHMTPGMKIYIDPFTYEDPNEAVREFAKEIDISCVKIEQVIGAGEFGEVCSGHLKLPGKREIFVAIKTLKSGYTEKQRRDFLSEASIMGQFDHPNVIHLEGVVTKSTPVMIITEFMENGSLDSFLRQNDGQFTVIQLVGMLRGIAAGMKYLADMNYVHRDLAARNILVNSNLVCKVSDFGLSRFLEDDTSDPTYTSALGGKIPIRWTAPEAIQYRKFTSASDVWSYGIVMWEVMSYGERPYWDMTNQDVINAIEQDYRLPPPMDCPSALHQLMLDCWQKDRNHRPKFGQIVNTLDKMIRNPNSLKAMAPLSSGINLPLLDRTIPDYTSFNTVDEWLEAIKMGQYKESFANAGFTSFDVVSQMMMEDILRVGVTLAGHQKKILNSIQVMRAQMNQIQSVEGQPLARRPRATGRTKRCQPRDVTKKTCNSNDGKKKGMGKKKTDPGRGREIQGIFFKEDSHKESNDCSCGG
# Fer (mouse) = test: as above
# Grb2 SH2 = Grb2 SH2 (UniProt P62993); test: SH2 binding enrichment of the phosphorylated peptide, bacterial display (enrichment ratio); higher = better substrate or ligand; peptides without Tyr show the background
# SHP2-C SH2 = test: as above
# c-Src SH2 = test: as above
# 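For SH2 binding enrichment of the phosphorylated peptide, bacterial display in this document: peptide library displayed on the E. coli surface as eCPX fusions, selected cells deep-sequenced, score is each peptide's frequency after selection divided by its frequency in the input.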
# 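For phosphorylation enrichment, bacterial display in this document: 11-residue human phosphosite peptides and single-mutation variants displayed on the E. coli surface, counted by deep sequencing, each peptide's frequency after selection divided by its frequency in the unselected input library; frequency after pTyr selection over input frequency; kinase dosed for 20-30% of maximal phosphorylation in three min.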
# Chain of Fyn (P06241 whole entry, looked up): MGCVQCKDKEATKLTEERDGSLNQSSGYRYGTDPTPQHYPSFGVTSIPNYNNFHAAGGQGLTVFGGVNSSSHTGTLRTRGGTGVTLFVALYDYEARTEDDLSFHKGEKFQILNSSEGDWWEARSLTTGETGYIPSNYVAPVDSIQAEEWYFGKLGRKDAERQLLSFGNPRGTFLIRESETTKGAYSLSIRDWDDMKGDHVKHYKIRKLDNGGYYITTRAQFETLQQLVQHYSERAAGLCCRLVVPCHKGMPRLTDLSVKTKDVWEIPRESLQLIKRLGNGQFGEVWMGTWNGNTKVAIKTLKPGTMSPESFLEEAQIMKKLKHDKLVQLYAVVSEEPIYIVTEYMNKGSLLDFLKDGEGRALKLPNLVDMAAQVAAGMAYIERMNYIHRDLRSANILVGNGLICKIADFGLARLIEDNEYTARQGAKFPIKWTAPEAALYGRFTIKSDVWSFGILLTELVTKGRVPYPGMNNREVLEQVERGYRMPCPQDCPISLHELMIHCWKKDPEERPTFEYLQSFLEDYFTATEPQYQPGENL
# Chain of Jak2 (O60674 whole entry, looked up): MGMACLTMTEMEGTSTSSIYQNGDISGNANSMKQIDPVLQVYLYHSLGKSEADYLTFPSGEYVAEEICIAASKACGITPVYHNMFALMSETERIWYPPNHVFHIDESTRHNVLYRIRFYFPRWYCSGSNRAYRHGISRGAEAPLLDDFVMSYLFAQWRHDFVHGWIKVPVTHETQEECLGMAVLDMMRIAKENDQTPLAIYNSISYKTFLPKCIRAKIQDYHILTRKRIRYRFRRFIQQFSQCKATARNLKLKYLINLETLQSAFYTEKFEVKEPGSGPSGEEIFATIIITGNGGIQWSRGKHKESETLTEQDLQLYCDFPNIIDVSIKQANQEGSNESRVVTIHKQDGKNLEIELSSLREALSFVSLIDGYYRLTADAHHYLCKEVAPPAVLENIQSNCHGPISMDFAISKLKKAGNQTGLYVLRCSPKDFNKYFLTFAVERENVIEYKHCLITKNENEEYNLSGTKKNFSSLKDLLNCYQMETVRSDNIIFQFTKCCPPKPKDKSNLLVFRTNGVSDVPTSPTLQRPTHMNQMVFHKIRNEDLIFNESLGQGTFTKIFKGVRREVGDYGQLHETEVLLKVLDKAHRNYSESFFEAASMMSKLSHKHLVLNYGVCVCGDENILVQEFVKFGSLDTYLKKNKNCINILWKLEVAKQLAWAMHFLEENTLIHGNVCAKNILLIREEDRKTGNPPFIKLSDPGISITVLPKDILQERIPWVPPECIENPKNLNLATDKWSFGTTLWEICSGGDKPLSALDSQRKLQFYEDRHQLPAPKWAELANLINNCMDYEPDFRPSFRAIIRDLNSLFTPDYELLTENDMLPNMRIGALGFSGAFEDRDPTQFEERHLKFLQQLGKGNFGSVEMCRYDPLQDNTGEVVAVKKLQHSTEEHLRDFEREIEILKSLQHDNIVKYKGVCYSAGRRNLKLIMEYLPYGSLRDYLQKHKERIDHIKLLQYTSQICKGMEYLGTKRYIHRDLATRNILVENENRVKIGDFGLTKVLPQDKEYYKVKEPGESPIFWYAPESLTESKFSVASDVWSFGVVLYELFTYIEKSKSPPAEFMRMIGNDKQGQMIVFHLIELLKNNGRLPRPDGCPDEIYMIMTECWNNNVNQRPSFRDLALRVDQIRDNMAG
# Chain of Fes (P07332 whole entry, looked up): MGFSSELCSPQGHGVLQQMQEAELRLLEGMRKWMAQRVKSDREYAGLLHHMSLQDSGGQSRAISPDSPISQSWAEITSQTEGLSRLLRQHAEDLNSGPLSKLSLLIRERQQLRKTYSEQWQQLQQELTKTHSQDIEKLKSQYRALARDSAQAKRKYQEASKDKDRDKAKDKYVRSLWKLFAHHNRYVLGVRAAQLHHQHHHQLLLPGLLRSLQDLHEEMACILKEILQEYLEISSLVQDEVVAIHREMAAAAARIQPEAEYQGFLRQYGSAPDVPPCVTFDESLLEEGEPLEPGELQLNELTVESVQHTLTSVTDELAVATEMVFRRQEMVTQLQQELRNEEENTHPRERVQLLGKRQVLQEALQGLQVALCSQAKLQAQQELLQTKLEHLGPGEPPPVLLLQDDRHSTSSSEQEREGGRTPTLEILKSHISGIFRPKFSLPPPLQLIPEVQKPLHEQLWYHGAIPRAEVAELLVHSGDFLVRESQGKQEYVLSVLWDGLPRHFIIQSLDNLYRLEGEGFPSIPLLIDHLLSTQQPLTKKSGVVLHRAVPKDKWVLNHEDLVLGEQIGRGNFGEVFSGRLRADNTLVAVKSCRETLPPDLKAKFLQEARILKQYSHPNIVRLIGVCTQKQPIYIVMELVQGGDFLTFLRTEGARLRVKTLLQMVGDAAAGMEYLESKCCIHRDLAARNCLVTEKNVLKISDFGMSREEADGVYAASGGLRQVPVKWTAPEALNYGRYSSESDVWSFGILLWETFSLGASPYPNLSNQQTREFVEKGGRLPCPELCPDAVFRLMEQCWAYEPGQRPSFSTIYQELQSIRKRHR
Sequence,SH2 binding enrichment (Grb2 SH2),SH2 binding enrichment (SHP2-C SH2),SH2 binding enrichment (c-Src SH2),phosphorylation enrichment (FGFR3),phosphorylation enrichment (Fes),phosphorylation enrichment (c-Src),phosphorylation enrichment (FGFR1),phosphorylation enrichment (EPHB1),phosphorylation enrichment (Jak2),phosphorylation enrichment (Fyn),phosphorylation enrichment (MERTK),phosphorylation enrichment (Hck),phosphorylation enrichment (c-Abl (mouse)),phosphorylation enrichment (AncSZ),phosphorylation enrichment (EPHB2),phosphorylation enrichment (Fer (mouse))
EVKEAYMGNVL [ACAT1_Y90],0.881,0.699,0.542,0.505,0.848,0.402,0.596,0.341,0.626,0.474,0.444,0.42,0.506,0.804,0.593,0.528
TMKSRYMELYD [BBS2_Y644],0.809,1.2,4.93,0.556,0.868,0.73,0.489,0.535,0.808,0.475,0.456,0.694,0.624,0.812,0.608,0.426
NKYVAYIESQG [KDM4B_Y34],0.755,1.51,0.676,0.625,0.885,0.437,0.567,0.554,0.827,0.407,0.449,0.413,0.692,0.893,0.472,0.422
CWAVKYLQMVG [AVPR2_Y117_R113W],1.26,1.2,0.92,0.703,1.39,0.434,0.495,0.622,1.26,0.413,0.386,0.466,0.817,1.37,0.832,0.504
NKFVAYIESQG [KDM4B_Y34_YF],0.968,0.801,0.565,0.663,1.12,0.452,0.491,0.526,0.836,0.49,0.459,0.494,0.611,0.899,0.553,0.481
DLEKTYNTYRS [B4GALNT2_Y538_A533D],0.654,0.511,0.43,0.703,0.788,1.03,0.554,0.382,0.823,0.845,0.424,0.761,0.441,0.848,0.509,0.401
GKTQQYECKWF [BCR_Y751_D752E_YF],0.694,0.529,0.488,0.627,1.06,0.472,0.545,0.509,0.793,0.509,0.467,0.569,0.614,0.818,0.603,0.572
LVSCTYQLARG [FGFR2_Y608],0.894,0.7,0.515,0.698,1.08,0.783,0.452,0.536,0.983,0.579,0.443,0.483,0.91,1.23,0.62,0.605
IALNSYHSRNC [IFNGR1_Y397],0.917,0.814,0.534,0.525,0.715,0.4,0.464,0.383,0.521,0.417,0.469,0.469,0.599,0.584,0.492,0.347
KPGVNYYFQVS,1.01,2,1.3,2.05,1.35,0.5,2.49,0.699,1.44,0.573,0.873,0.526,0.895,1.22,0.602,0.522
RESYKYFPSSL [CXXC1_Y218],1.06,0.697,0.688,1.09,0.841,0.861,0.51,0.651,1.15,0.843,0.69,0.685,0.77,1.18,0.475,0.82
LKEIHYPPFTD [ALDH3B2_Y362_YF],0.922,0.644,0.505,0.555,0.9,0.401,0.474,0.425,0.659,0.437,0.329,0.437,0.559,0.819,0.541,0.413
WHFTFYNELRV [ACTC1_Y93_H90Y_YF],0.782,0.483,0.535,1.07,1.5,0.42,0.542,0.784,1.2,0.413,0.392,0.635,1.27,1.42,0.671,0.578
VDTFWYKLLKR [EPM2A_Y86_F88L],1.04,0.66,0.646,0.644,1.06,0.347,0.439,0.493,0.937,0.372,0.342,0.331,0.748,0.971,0.548,0.456
YALAEYTEVKT [ALDH1A3_Y497],0.66,4.27,5.59,1.25,0.901,0.658,1.73,0.651,0.812,0.572,0.652,0.724,0.614,1.29,0.719,1.31
QLAPQYTYAQG [FLNA_Y1761],0.887,2.01,3.16,0.704,1.01,0.693,0.714,0.52,0.696,0.61,0.65,0.624,0.61,0.722,1.19,0.448
HEVHIYENSGA [ARPC1B_Y35_K37N],12.4,1.03,6.64,0.892,2.27,0.865,0.703,1.38,1.31,1.04,0.826,1.62,1.32,1.44,1.28,1.26
LEQRPYRRGSE [KCNJ12_Y427_E430G],0.891,0.733,0.419,0.511,0.683,0.399,0.365,0.348,0.576,0.424,0.442,0.523,0.594,0.651,0.478,0.447

# Further lines, with some results ahead:
SH2 binding enrichment (Grb2 SH2),SH2 binding enrichment (SHP2-C SH2),SH2 binding enrichment (c-Src SH2),Sequence,phosphorylation enrichment (FGFR3),phosphorylation enrichment (Fes),phosphorylation enrichment (c-Src),phosphorylation enrichment (FGFR1),phosphorylation enrichment (EPHB1),phosphorylation enrichment (Jak2),phosphorylation enrichment (Fyn),phosphorylation enrichment (MERTK),phosphorylation enrichment (Hck),phosphorylation enrichment (c-Abl (mouse)),phosphorylation enrichment (AncSZ),phosphorylation enrichment (EPHB2),phosphorylation enrichment (Fer (mouse))
1.19,0.748,0.97,SHTPSYCDEWL [RITA1_Y109_S113W],0.779,1.12,0.494,0.529,0.645,0.97,0.473,0.553,0.505,0.985,1.17,0.558,0.57
0.944,0.727,0.5,GFILMYDITNK [RAB3C_Y110_E115K],1.17,2.04,0.575,0.617,1.15,1.83,0.529,0.835,0.591,1.21,1.59,1.14,0.724
0.603,4.46,2.36,QDRTFYERVRT [SPEN_Y633_S635R_YF],0.441,0.591,0.402,0.529,0.416,0.509,0.403,0.539,1.2,0.582,0.583,0.42,3.63
0.752,0.513,0.546,QLQTNYPSSDN [MAX_Y115],0.725,1.14,0.628,0.642,0.583,0.773,0.476,0.657,0.527,1.02,0.951,0.766,0.551
1.83,1.68,1.84,KRLYAYKMLMA [TMC2_Y209_Q205R],0.568,0.869,0.399,0.453,0.492,0.675,0.327,0.348,0.436,0.684,0.731,0.493,0.42
0.843,0.673,0.71,LARNMYDKEYY [MET_Y1230_D1228N],0.569,0.872,0.611,0.631,0.482,0.84,0.441,0.358,0.605,0.565,1.13,0.546,0.468
0.705,0.578,0.476,GVRLFYRVRES [RB1_Y454_M457R_YF],0.65,1.16,0.349,0.513,0.471,1.05,0.417,0.383,0.375,0.976,1.25,0.529,0.461
0.956,0.776,0.956,KSELAYEIFDK [MYOM2_Y1024],0.782,1.21,4.27,0.65,0.596,1.24,1.94,4.45,0.951,0.915,2,0.603,1
1.09,0.587,0.663,PATINYPFEKG [NDUFS8_Y84],0.565,1.18,0.674,0.521,0.65,0.776,1.04,0.556,0.342,0.491,0.88,0.218,0.595
0.963,0.652,3.92,KGYRGYSYDDI [TMEM230_Y110],0.509,0.774,0.434,0.485,0.407,0.607,0.425,0.417,0.395,0.547,0.756,0.424,0.393
0.956,0.66,0.841,DQVEQYKKELE [LMNA_Y259],0.688,1.2,0.603,0.561,0.67,0.956,0.516,0.527,0.509,0.878,1.32,0.644,0.534
0.707,0.479,0.518,NNKKDYFDMFE [SLC26A3_Y526_K521N_YF],3.74,1.16,0.488,5.31,1.12,0.991,0.415,0.46,0.504,0.723,1.08,0.791,0.485
0.599,0.888,0.611,LANNEYFFQVC,9.36,2.72,1.35,12.8,1.55,2.29,1.4,0.933,0.932,1.74,3.75,0.804,0.939
0.829,0.937,0.53,GSIQQYTFKQE [PRG4_Y1271_I1272T_YF],0.573,0.785,0.356,0.369,0.484,0.641,0.345,0.322,0.347,0.728,0.703,0.451,0.427
1.02,1.09,0.616,ECKLLYSRKEG [PTPN11_Y263],0.554,0.754,0.425,0.487,0.436,0.647,0.446,0.483,0.564,0.77,0.855,0.513,0.465
